Among the data in patent US20170342349A1, “STABILIZED ENZYME COMPOSITIONS” (NOVOZYMES A/S, priority 2014, published 2017) are IF (binding constant improvement factor, relative Ki) values, retold here.

Assay [1] deals with TY145 (SEQ ID NO 3) variant S114V + I150L + S173P + S175P. The experiment in a line: Ki fitted from Suc-AAPF-pNA activity in Model B detergent; IF relative to SEQ ID NO 3 comprising S173P + S175P.
Assay [2] deals with TY145 (SEQ ID NO 3) variant S114V + S173P + S175P. The description is as above.
Assay [3] concerns the target TY145 (SEQ ID NO 3) variant Q70N + S173P + S175P. The description is as above.
In assay [4] the target is TY145 (SEQ ID NO 3) variant I150L + S173P + S175P. The description is as above.
The target of assay [5] is TY145 (SEQ ID NO 3) variant K146A + S173P + S175P + F180Y. The experiment in a line: Ki fitted from Suc-AAPF-pNA activity in Model B detergent; IF relative to SEQ ID NO 3 comprising S173P + S175P + F180Y.
Assay [6] concerns the target TY145 (SEQ ID NO 3) variant Q70F + S173P + S175P + F180Y. The assay is described as above.
Assay [7] addresses TY145 (SEQ ID NO 3) variant I150V + S173P + S175P + F180Y. The description is as above.
Assay [8] concerns the target TY145 (SEQ ID NO 3) variant S114F + S173P + S175P + F180Y. The assay is described as above.
For assay [9], the target named is TY145 (SEQ ID NO 3) variant S173P + S175P + F180Y + L184D. The description is as above.
Assay [10] addresses TY145 (SEQ ID NO 3) variant K146R + S173P + S175P + F180Y. Described as above.
In assay [11] the target is TY145 (SEQ ID NO 3) variant K146S + S173P + S175P + F180Y. Described as above.
For assay [12], the target named is TY145 (SEQ ID NO 3) variant S173P + S175P + I178P + F180Y. The assay is described as above.
The target in assay [13] is TY145 (SEQ ID NO 3) variant S173P + S175P + F180Y + L184Y. Described as above.
Assay [14] deals with TY145 (SEQ ID NO 3) variant S111I + S173P + S175P + F180Y. The description is as above.
In assay [15] the target is TY145 (SEQ ID NO 3) variant S173P + S175P + I178F + F180Y. Described as above.
Assay [16] deals with TY145 (SEQ ID NO 3) variant S173P + S175P + F180Y + L184H. The assay is described as above.
The target in assay [17] is TY145 (SEQ ID NO 3) variant K146F + S173P + S175P + F180Y. Described as above.
In assay [18] the target is TY145 (SEQ ID NO 3) variant S173P + S175P + F180Y + G182A. Described as above.
Assay [19] has as its target TY145 (SEQ ID NO 3) variant Q70Y + S173P + S175P + F180Y. The description is as above.
The target of assay [20] is TY145 (SEQ ID NO 3) variant S173P + S175P + F180Y. The assay can be described thus: Ki fitted from Suc-AAPF-pNA activity in Model B detergent; IF relative to SEQ ID NO 3 comprising S173P + S175P + F180Y (the reference itself).

TY145 (SEQ ID NO 3) variant Q70Y + S173P + S175P + F180Y, sequence (chain, as listed by the source Q70Y S173P S175P F180Y Q70Y S173P S175P F180Y limits assumed): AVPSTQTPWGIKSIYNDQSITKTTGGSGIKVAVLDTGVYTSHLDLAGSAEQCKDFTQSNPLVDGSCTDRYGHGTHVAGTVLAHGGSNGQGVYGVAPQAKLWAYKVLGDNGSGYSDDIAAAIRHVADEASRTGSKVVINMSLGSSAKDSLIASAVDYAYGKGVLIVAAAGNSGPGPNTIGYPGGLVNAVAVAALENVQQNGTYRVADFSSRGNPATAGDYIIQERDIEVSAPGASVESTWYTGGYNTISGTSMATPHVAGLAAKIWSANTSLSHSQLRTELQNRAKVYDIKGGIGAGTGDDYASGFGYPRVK
TY145 (SEQ ID NO 3) variant Q70F + S173P + S175P + F180Y, sequence (chain, as listed by the source Q70F S173P S175P F180Y Q70F S173P S175P F180Y limits assumed): as the sequence (chain, as listed by the source Q70Y S173P S175P F180Y Q70Y S173P S175P F180Y limits assumed) above, with Y70F counted along it
TY145 (SEQ ID NO 3) variant Q70N + S173P + S175P, sequence (chain, as listed by the source Q70N S173P S175P Q70N S173P S175P limits assumed): as the sequence (chain, as listed by the source Q70Y S173P S175P F180Y Q70Y S173P S175P F180Y limits assumed) above, with Y70N, Y180F counted along it
TY145 (SEQ ID NO 3) variant I150L + S173P + S175P, sequence (chain, as listed by the source I150L S173P S175P I150L S173P S175P limits assumed): as the sequence (chain, as listed by the source Q70Y S173P S175P F180Y Q70Y S173P S175P F180Y limits assumed) above, with Y70Q, I150L, Y180F counted along it
TY145 (SEQ ID NO 3) variant S114V + S173P + S175P, sequence (chain, as listed by the source S114V S173P S175P S114V S173P S175P limits assumed): as the sequence (chain, as listed by the source Q70Y S173P S175P F180Y Q70Y S173P S175P F180Y limits assumed) above, with Y70Q, S114V, Y180F counted along it
TY145 (SEQ ID NO 3) variant S114V + I150L + S173P + S175P, sequence (chain, as listed by the source S114V I150L S173P S175P S114V I150L S173P S175P limits assumed): as the sequence (chain, as listed by the source Q70Y S173P S175P F180Y Q70Y S173P S175P F180Y limits assumed) above, with Y70Q, S114V, I150L, Y180F counted along it
TY145 (SEQ ID NO 3) variant S173P + S175P + F180Y, sequence (chain, as listed by the source S173P S175P F180Y S173P S175P F180Y limits assumed): as the sequence (chain, as listed by the source Q70Y S173P S175P F180Y Q70Y S173P S175P F180Y limits assumed) above, with Y70Q counted along it

As for “Inhibitor 1: Cbz-Gly-Ala-NHCH(CH2C6H4pOH)C(OH)(SO3Na)-H (peptide)”, the IF (binding constant improvement factor, relative Ki) in assay [1] came out at 6.14; in assay [2], 1.83; in assay [3], 4.48; in assay [4], 2.05; in assay [5] it was 3.72; in [6], 11.8. For the same substance, the IF (binding constant improvement factor, relative Ki) in assay [7] was 1.8; in assay [8] it was 1.41; in assay [9] it was 3.28; in assay [10], 1.31; in assay [11], 1.13; in assay [12] it was 2.22. Also, the IF (binding constant improvement factor, relative Ki) was determined as 3.91 in [13]; 1.12 in [14]; 2.34 in assay [15]; 2.5 in assay [16]; 5.17 in assay [17]; 2.49 in assay [18]. Besides, the IF (binding constant improvement factor, relative Ki) was 7.44 in assay [19] and 1 in assay [20].
